These results are taken from patent US20150125397A1, “DUAL SPECIFIC BINDING PROTEINS DIRECTED AGAINST IMMUNE CELL RECEPTORS AND AUTOANTIGENS” (ABBVIE INC., priority 2013, published 2015).

“Also recorded” adds a separate entry of the source.

Common to all, as to assay type: cell-based, mouse
Assay [1] deals with Dnase2−/− Ifnar1−/− Unc93b1−/− TKO B cells. Briefly: 3H-thymidine incorporation of B220-purified B cells, TKO. Particulars: 24 hours, FIG. 10C. An excerpt:
(§1) Mice: RF and Tlr-9^−/− mice have been described previously (Uccellini et al. (2008) J. Immunol. 181:5875-5884), The DNase II-deficient mice on a C57BL/6 background were kindly provided by Dr. S, Nagata and obtained from the RIKEN Institute. […] and Unc93B1-deficient mice were obtained from Jackson Lab. DnaseII^−/− Ifnar1^−/− (Het), DnaseII^−/− Ifnar1−/− (DKO), and DnaseII^−/− Unc93b1^−/− (TKO), were bred at UMMS. All mice were maintained at the Department of Animal Medicine of the University of Massachusetts Medical School in accordance with the regulations of the American Association for the Accreditation of Laboratory Animal Care.
(§2) Proliferation of B220+ B cells: B cells were purified by magnetic bead separation using CD45R/B220-conjugated magnetic particles (BD Biosciences, San Jose, Calif., USA) and stimulated as described previously (Nundel et al. (2013) J. Leukoc. Biol. 94:865-875) with 15 μg/ml goat anti-mouse IgM F(ab′)2 (Jackson ImmunoResearch), ODN1826 (CpG; Idera Pharmaceuticals), anti-DNA-mAb (Leadbetter et al. (2002) Nature 416:603-607), or DVD-Ig proteins (1 μg/ml). B cell proliferation was assessed by ^3H-thymidine (Amersham Biosciences, Piscataway, N.J., USA) incorporation at 24 hours post-stimulation. For long-term proliferation assays, B220-purified B cells were labeled with a final concentration of 2.5 μM CFSE (Life Technologies) in PBS for 2 minutes. […]
For orientation: Dividing cells build labelled thymidine or BrdU into new DNA.

The subject of another assay is BALB/c B cells. Briefly: Proliferation of B220+ B cells, non-Tg BALB/c. Particulars: 3H-thymidine 24 hours, CFSE 72 hours; FIG. 8D, 9. On the procedure:
Proliferation of B220+ B cells: B cells were purified by magnetic bead separation using CD45R/B220-conjugated magnetic particles (BD Biosciences, San Jose, Calif., USA) and stimulated as described previously (Nundel et al. (2013) J. Leukoc. Biol. 94:865-875) with 15 μg/ml goat anti-mouse IgM F(ab′)2 (Jackson ImmunoResearch), ODN1826 (CpG; Idera Pharmaceuticals), anti-DNA-mAb (Leadbetter et al. (2002) Nature 416:603-607), or DVD-Ig proteins (1 μg/ml). B cell proliferation was assessed by ^3H-thymidine (Amersham Biosciences, Piscataway, N.J., USA) incorporation at 24 hours post-stimulation. For long-term proliferation assays, B220-purified B cells were labeled with a final concentration of 2.5 μM CFSE (Life Technologies) in PBS for 2 minutes. The cells were then washed and cultured for 72 hours in the presence of BLyS (Human Genome Sciences).
FACS for B cells: Multicolor flow cytometry analysis was carried out using a BD LSR II with DIVA software (BD Biosciences). Analysis was conducted with FlowJo software (Tree Star, Ashland, Oreg., USA) Immature and mature B cell ratios were determined using Pacific Blue-B220 and APC-AA4.1 (eBioscience). Dead cells and debris were excluded by forward- and side-scatter. Proliferation was assessed by CFSE dilution. Cell death was ascertained using the DNA stain TO-PRO-3 (Life Technologies) at a final concentration of 20 nM.

For assay [2], the system named is Dnase2−/− Ifnar1−/− DKO B cells. The assay is described as follows: 3H-thymidine incorporation of B220-purified B cells, DKO. As to conditions: 24 hours, FIG. 10C.
Source text: as §1, §2

B1: DVD3754: DVD-Ig: VD1 DNA(PA4), SL linker, VD2 mIgM (B7.6); heavy SEQ ID NO 54, light 55 (antibody)
heavy: EVQLVESGGGLVKPGGSLKLSCVASGFTFSTYAMSWVRQTPTKRLEWVATISRGGVSTYYPDTVKGRFTISRDNAKNTLYLQMSSLRSEDTAMYYCARPPTIVTTWFAYWGQGTLVTVSSASTKGPQVQLKESGPGLVKPSLTLSLTCTVSGFSLNGYGVIWVRQPPGKGLEWMGVIWGNGNTNYNSTLKSRLSISRDTSKSQVFLKMNNLQTEDTAMYFCARSENYYSSPGYFAYWGQGTLVTVSS
light: DVVMTQTPLSLPVSLGDQASISCRSSQSLVHSNGNTYLHWYLQKPGQSPKLLIYKVSNRFSGVPDRFSGSGSGTDFTLKISRVEAEDLGAYFCSQSTHVPYTFGGPTRLEIKRTVAAPSVFIFPPNTVMTQSPTSMFISVGDRVTMNCKASQNVGSDVDWYQQKTGQSPKLLISGTSNRYTGVPDRFTGSGSGTDFTLTISNMQAEDLAVYYCLQYNYNPTFGAGTKLELKR
Turning to B1, in assay [1], the “response of TKO B cells” value was “failed to respond”. The “activation / proliferation of non-Tg BALB/c B cells” value in the assay on BALB/c B cells was “stimulated BALB/c B cells more strongly than the rest; also recorded: induced both RF and non-Tg BALB/c B cells”. Also, the “response of DKO B cells” value in assay [2] was “failed to respond”.
